Experimental data from the supplement of paper PMC9112550, “Optimization of the antimicrobial peptide Bac7 by deep mutational scanning” (BMC Biology, 2022).

test system: Escherichia coli TOP10; test: shrunken log2 fold change of peptide-encoding DNA abundance (4.5 h post-induction vs induction); higher = less antimicrobial activity (less host growth inhibition); details: time post-induction: 4.5 h; library: site-saturation at positions 5, 18, 19, 20
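Note: peptides expressed intracellularly from a pBAD plasmid library in pooled LB shake-flask culture, induced with 0.3% L-arabinose, DNA abundance read by NGS, three biological replicates, DESeq2 with apeglm shrinkage.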

Sequence	shrunken log2 fold change
RRIRFRPPRLPRPRPRPAKTPRP	-0.0138
RRIRVRPPRLPRPRPRPFLDPRP	-0.187
RRIRIRPPRLPRPRPRPAMYPRP	-0.733
RRIRVRPPRLPRPRPRPNMLPRP	-0.432
RRIRMRPPRLPRPRPRPCSRPRP	0.296
RRIRGRPPRLPRPRPRPLSGPRP	0.675
RRIRERPPRLPRPRPRPMMEPRP	-0.0582
RRIRWRPPRLPRPRPRPYKHPRP	-1.24
RRIRVRPPRLPRPRPRPWNYPRP	-0.0949
RRIRYRPPRLPRPRPRPEQMPRP	0.195
RRIRMRPPRLPRPRPRPDTAPRP	1.24
RRIRMRPPRLPRPRPRPAISPRP	0.0806
RRIRMRPPRLPRPRPRPYYHPRP	-0.459
RRIRPRPPRLPRPRPRPWNSPRP	-0.163
RRIRARPPRLPRPRPRPPHFPRP	1.41
RRIRPRPPRLPRPRPRPLKHPRP	-0.221
RRIRDRPPRLPRPRPRPYYWPRP	-0.184
RRIRWRPPRLPRPRPRPNCAPRP	0.255
RRIRLRPPRLPRPRPRPGVTPRP	0.0426
RRIRWRPPRLPRPRPRPRRQPRP	-0.0653
RRIRWRPPRLPRPRPRPMNAPRP	0.327
RRIRARPPRLPRPRPRPYNMPRP	-0.809
RRIRSRPPRLPRPRPRPHIMPRP	-0.393
RRIRQRPPRLPRPRPRPMGNPRP	-0.136
RRIRVRPPRLPRPRPRPHELPRP	0.118

Sequence	shrunken log2 fold change
RRIRHRPPRLPRPRPRPLQIPRP	0.0781
RRIRQRPPRLPRPRPRPMYSPRP	-0.746
RRIRVRPPRLPRPRPRPCTPPRP	-0.13
RRIRHRPPRLPRPRPRPLNYPRP	-0.289
RRIRNRPPRLPRPRPRPMFNPRP	-0.868
RRIRHRPPRLPRPRPRPHMPPRP	-0.358
RRIRMRPPRLPRPRPRPERLPRP	0.442
RRIRRRPPRLPRPRPRPAWVPRP	1.75
RRIRIRPPRLPRPRPRPIEWPRP	-0.123
RRIRQRPPRLPRPRPRPATCPRP	-0.0483
RRIRFRPPRLPRPRPRPSDPPRP	-0.106
RRIRNRPPRLPRPRPRPYQIPRP	-0.0282
RRIRPRPPRLPRPRPRPMAKPRP	0.646
RRIRVRPPRLPRPRPRPVNHPRP	-0.306
RRIRSRPPRLPRPRPRPLEAPRP	0.177
RRIRHRPPRLPRPRPRPVGMPRP	-0.63
RRIRRRPPRLPRPRPRPAWRPRP	0.504
RRIRMRPPRLPRPRPRPMYPPRP	-0.00194
RRIRRRPPRLPRPRPRPATPPRP	0.783
RRIRFRPPRLPRPRPRPNFCPRP	0.0651
RRIRERPPRLPRPRPRPTSNPRP	-0.504
RRIRNRPPRLPRPRPRPFKRPRP	0.09
RRIRFRPPRLPRPRPRPLGSPRP	0.192
RRIRVRPPRLPRPRPRPRDCPRP	2.64
RRIRQRPPRLPRPRPRPKMFPRP	0.106

Sequence	shrunken log2 fold change
RRIRGRPPRLPRPRPRPHFKPRP	0.178
RRIRFRPPRLPRPRPRPFTGPRP	-0.246
RRIRCRPPRLPRPRPRPECYPRP	-0.238
RRIRWRPPRLPRPRPRPNEPPRP	-0.000964
RRIRTRPPRLPRPRPRPLLIPRP	-0.0383
RRIRDRPPRLPRPRPRPHYHPRP	-0.806
RRIRNRPPRLPRPRPRPRYHPRP	-0.438
RRIRQRPPRLPRPRPRPHLIPRP	-0.0982
RRIRFRPPRLPRPRPRPRRAPRP	0.678
RRIRMRPPRLPRPRPRPHVVPRP	-0.0448
RRIRQRPPRLPRPRPRPPQTPRP	0.33
RRIRSRPPRLPRPRPRPGEPPRP	-0.054
RRIRTRPPRLPRPRPRPRPMPRP	0.184
RRIRRRPPRLPRPRPRPMTWPRP	-0.154
RRIRPRPPRLPRPRPRPYEIPRP	-0.0187
RRIRIRPPRLPRPRPRPTWTPRP	0.398
RRIRMRPPRLPRPRPRPHTAPRP	-0.000764
RRIRDRPPRLPRPRPRPFFGPRP	1.19
RRIRDRPPRLPRPRPRPGYAPRP	0.137
RRIRPRPPRLPRPRPRPSFAPRP	0.258
RRIRSRPPRLPRPRPRPSVNPRP	-0.119
RRIRWRPPRLPRPRPRPEQCPRP	-0.0195
RRIRARPPRLPRPRPRPNRCPRP	0.0646
RRIRERPPRLPRPRPRPITAPRP	-0.573
RRIRLRPPRLPRPRPRPKQTPRP	0.0369

Sequence	shrunken log2 fold change
RRIRIRPPRLPRPRPRPLTAPRP	0.00505
RRIRSRPPRLPRPRPRPHGHPRP	-0.167
RRIRHRPPRLPRPRPRPHWFPRP	-0.198
RRIRARPPRLPRPRPRPCYPPRP	-0.209
RRIRWRPPRLPRPRPRPMMPPRP	0.0187
RRIRVRPPRLPRPRPRPHKNPRP	-0.301
RRIRDRPPRLPRPRPRPPVGPRP	0.348
RRIRTRPPRLPRPRPRPYRTPRP	0.0638
RRIRWRPPRLPRPRPRPMVFPRP	0.274
RRIRVRPPRLPRPRPRPLQTPRP	0.158
RRIRKRPPRLPRPRPRPQFVPRP	-0.0281
RRIRQRPPRLPRPRPRPRSMPRP	0.33
RRIRIRPPRLPRPRPRPGWQPRP	0.449
RRIRVRPPRLPRPRPRPFTQPRP	0.0152
RRIRQRPPRLPRPRPRPIHEPRP	-0.0182
RRIRSRPPRLPRPRPRPHFKPRP	-0.383
RRIRRRPPRLPRPRPRPVYKPRP	0.0922
RRIRERPPRLPRPRPRPRTYPRP	-0.517
RRIRNRPPRLPRPRPRPMCMPRP	-0.106
RRIRMRPPRLPRPRPRPMMVPRP	-0.00664
RRIRLRPPRLPRPRPRPKKGPRP	-0.166
RRIRPRPPRLPRPRPRPVNHPRP	-0.277
RRIRKRPPRLPRPRPRPHYNPRP	-0.428
RRIRYRPPRLPRPRPRPEYEPRP	-0.0176
RRIRGRPPRLPRPRPRPQNEPRP	0.208

Sequence	shrunken log2 fold change
RRIRMRPPRLPRPRPRPSYWPRP	0.0657
RRIRYRPPRLPRPRPRPGVSPRP	0.0695
RRIRERPPRLPRPRPRPHGDPRP	-0.0135
RRIRDRPPRLPRPRPRPVLVPRP	0.0945
RRIRSRPPRLPRPRPRPTHRPRP	0.0995
RRIRERPPRLPRPRPRPILDPRP	-0.209
RRIRDRPPRLPRPRPRPQRVPRP	0.143
RRIRGRPPRLPRPRPRPAGVPRP	0.742
RRIRMRPPRLPRPRPRPRYYPRP	-0.261
RRIRIRPPRLPRPRPRPVLRPRP	-0.0796
RRIRNRPPRLPRPRPRPQCSPRP	-0.148
RRIRVRPPRLPRPRPRPKSGPRP	0.148
RRIRYRPPRLPRPRPRPFYMPRP	-0.258
RRIRSRPPRLPRPRPRPMQSPRP	-0.00143
RRIRLRPPRLPRPRPRPWAGPRP	-0.0317
RRIRIRPPRLPRPRPRPVNNPRP	-0.272
RRIRWRPPRLPRPRPRPEGWPRP	1.39
RRIRTRPPRLPRPRPRPLHDPRP	-0.21
RRIRHRPPRLPRPRPRPKISPRP	-0.395
RRIRERPPRLPRPRPRPWFEPRP	-0.0941
RRIRDRPPRLPRPRPRPDHVPRP	-0.012
RRIRQRPPRLPRPRPRPLVCPRP	0.0584
RRIRARPPRLPRPRPRPGFKPRP	-0.02
RRIRWRPPRLPRPRPRPRAIPRP	0.539
RRIRGRPPRLPRPRPRPEINPRP	0.797

Sequence	shrunken log2 fold change
RRIRCRPPRLPRPRPRPLLFPRP	-0.277
RRIRSRPPRLPRPRPRPHLRPRP	0.092
RRIRARPPRLPRPRPRPWHWPRP	0.209
RRIRYRPPRLPRPRPRPLNFPRP	-1.01
RRIRHRPPRLPRPRPRPFCWPRP	0.252
RRIRWRPPRLPRPRPRPKVYPRP	-0.0533
RRIRARPPRLPRPRPRPWFKPRP	-0.0366
RRIRSRPPRLPRPRPRPGIQPRP	0.0642
RRIRSRPPRLPRPRPRPTSPPRP	0.742
RRIRLRPPRLPRPRPRPFQAPRP	0.0248
RRIRQRPPRLPRPRPRPNCSPRP	-0.0334
RRIRSRPPRLPRPRPRPVHWPRP	0.138
RRIRRRPPRLPRPRPRPPFYPRP	0.463
RRIRDRPPRLPRPRPRPDSAPRP	-0.0433
RRIRKRPPRLPRPRPRPVFQPRP	0.447
RRIRWRPPRLPRPRPRPNVRPRP	0.057
RRIRIRPPRLPRPRPRPDDAPRP	-0.319
RRIRNRPPRLPRPRPRPPMPPRP	0.0312
RRIRQRPPRLPRPRPRPLWFPRP	-0.0512
RRIRARPPRLPRPRPRPAVKPRP	0.233
RRIRTRPPRLPRPRPRPLFEPRP	-0.166
RRIRMRPPRLPRPRPRPPCGPRP	0.788
RRIRERPPRLPRPRPRPAGIPRP	-0.536
RRIRPRPPRLPRPRPRPHPGPRP	2.42
RRIRLRPPRLPRPRPRPNKVPRP	-0.21
